Results taken from paper PMC3515676.

Key:
Test in all cases: purified protein
Assay type in all cases: biochemical, Homo sapiens
Settings in all cases: 14 μM PAP[35S], 50 mM Mops pH 7.0, 37 °C
purified protein [1] = substrate: C[C@H](CCC(=O)NCC(=O)O)[C@H]1CC[C@H]2[C@@H]3[C@H](O)C[C@@H]4C[C@H](O)CC[C@]4(C)[C@H]3CC[C@]12C
purified protein [2] = substrate: C[C@H](CCC(=O)O)[C@H]1CC[C@H]2[C@@H]3[C@H](O)C[C@@H]4C[C@H](O)CC[C@]4(C)[C@H]3CC[C@]12C
purified protein [3] = substrate: C[C@H](CCCO)[C@H]1CC[C@H]2[C@@H]3[C@H](O)C[C@H]4C[C@H](O)CC[C@]4(C)[C@H]3C[C@H](O)[C@]12C
purified protein [4] = substrate: C[C@H](CCC(=O)O)[C@H]1CC[C@H]2[C@@H]3CC[C@@H]4C[C@H](O)CC[C@]4(C)[C@H]3CC[C@]12C

B1: human SULT2A1 (hSULT2A1) (Homo sapiens) (protein)
chain: MSDDFLWFEGIAFPTMGFRSETLRKVRDEFVIRDEDVIILTYPKSGTNWLAEILCLMHSKGDAKWIQSVPIWERSPWVESEIGYTALSETESPRLFSSHLPIQLFPKSFFSSKAKVIYLMRNPRDVLVSGYFFWKNMKFIKKPKSWEEYFEWFCQGTVLYGSWFDHIHGWMPMREEKNFLLLSYEELKQDTGRTIEKICQFLGKTLEPEELNLILKNSSFQSMKENKMSNYSLLSVDYVVDKAQLLRKGVSGDWKNHFTVAQAEDFDKLFQEKMADLPRELFPWE
With B1 the Km (purified protein [1]) was 36.73 ± 2.47 µM, the Vmax (purified protein [1]) was 0.0038 µmol/min/mg and the Km (purified protein [2]) was 42.30 ± 2.97 µM. The Vmax (purified protein [2]) was 0.00395 µmol/min/mg, the Km (purified protein [3]) was 49.38 ± 4.62 µM and the Vmax (purified protein [3]) was 0.00549 µmol/min/mg. It also gave a Km (purified protein [4]) of 8.36 ± 0.39 µM and a Vmax (purified protein [4]) of 0.036 µmol/min/mg.
